Source: article PMC4793188, “Mechanism and inhibition of human UDP-GlcNAc 2-epimerase, the key enzyme in sialic acid biosynthesis” (Scientific Reports, 2016)

How the values were obtained:
[1] = target: the molecule itself; experiment: SEC; gel filtration of the apo-enzyme; data not shown
[2] = target: the molecule itself; experiment: crystal structure; Se-Met protein incubated in 5 mM UDP-GlcNAc and 5 mM CMP-Neu5Ac for 16-18 h at 4 °C; crystals from 0.2 M ammonium acetate, 0.1 M HEPES pH 7.1, 19% PEG 3350; UDP and CMP-Neu5Ac bound; 2.7 Å; space group C2, four monomers in the asymmetric unit

B1: epimerase part of human GNE (UDP-GlcNAc 2-epimerase domain of the bifunctional UDP-GlcNAc 2-epimerase/ManNAc kinase) (domain or fragment)
chain: MEKNGNNRKLRVCVATCNRADYSKLAPIMFGIKTEPEFFELDVVVLGSHLIDDYGNTYRMIEQDDFDINTRLHTIVRGEDEAAMVESVGLALVKLPDVLNRLKPDIMIVHGDRFDALALATSAALMNIRILHIEGGEVSGTIDDSIRHAITKLAHYHVCCTRSAEQHLISMCEDHDRILLAGCPSYDKLLSAKNKDYMSIIRMWLGDDVKSKDYIVALQHPVTTDIKHSIKMFELTLDALISFNKRTLVLFPNIDAGSKEMVRVMRKKGIEHHPNFRAVKHVPFDQFIQLVAHAGCMIGNSSCGVREVGAFGTPVINLGTRQIGRETGENVLHVRDADTQDKILQALHLQFGKQYPCSKIYGDGNAVPRILKFLKSIDLQEPLQKKFCFPPVKENISQDIDHILE
modifications: selenomethionine (Se-Met enriched protein, used for the crystal structure)
notes: UDP-GlcNAc 2-epimerase domain (N-terminal epimerase part, ~400 aa) of human bifunctional UDP-GlcNAc 2-epimerase/ManNAc kinase (GNE, ~720 aa); Cloned into pET21a(+); dimer as apo-enzyme by gel filtration; also called 2-epimerase domain of GNE; recombinant human UDP-GlcNAc 2-epimerase; source: E. coli BL21 (DE3), purified (Ni-NTA, Superdex-200)
stoichiometry N [1]: 2
stoichiometry N [2]: 4
